This note sets out measurements from paper doi:10.1101/2025.10.27.684718.

The assay concerns the target hsKir6.2 (Q52E) subunit of the cryo-EM KATP construct (human) (UniProt Q14654). The assay can be described thus: cryo-EM structure.

As usually defined, the stoichiometry N is the number of molecules, sites or subunits per partner or assembly.

Regarding “hsKir6.2 (Q52E) subunit of the cryo-EM KATP construct (from UniProt Q14654 2-390) (natural protein)”, the stoichiometry N is 4.
